From patent publication US20040086848A1 (University of Texas, published 2004) come the findings set out here.

Series [1] concerns the molecule itself. Description: gel filtration chromatography. (In general: In gel filtration, larger molecules generally elute earlier.)
The target of series [2] is T1, endogenous RANK of RAW264.7 cells (mouse, UniProt O35305 31-625).
T1 construct: whole, on cells; Immunoprecipitated from cell lysates with anti-RANK; The species follows from the mouse cell line
T1 sequence (looked up): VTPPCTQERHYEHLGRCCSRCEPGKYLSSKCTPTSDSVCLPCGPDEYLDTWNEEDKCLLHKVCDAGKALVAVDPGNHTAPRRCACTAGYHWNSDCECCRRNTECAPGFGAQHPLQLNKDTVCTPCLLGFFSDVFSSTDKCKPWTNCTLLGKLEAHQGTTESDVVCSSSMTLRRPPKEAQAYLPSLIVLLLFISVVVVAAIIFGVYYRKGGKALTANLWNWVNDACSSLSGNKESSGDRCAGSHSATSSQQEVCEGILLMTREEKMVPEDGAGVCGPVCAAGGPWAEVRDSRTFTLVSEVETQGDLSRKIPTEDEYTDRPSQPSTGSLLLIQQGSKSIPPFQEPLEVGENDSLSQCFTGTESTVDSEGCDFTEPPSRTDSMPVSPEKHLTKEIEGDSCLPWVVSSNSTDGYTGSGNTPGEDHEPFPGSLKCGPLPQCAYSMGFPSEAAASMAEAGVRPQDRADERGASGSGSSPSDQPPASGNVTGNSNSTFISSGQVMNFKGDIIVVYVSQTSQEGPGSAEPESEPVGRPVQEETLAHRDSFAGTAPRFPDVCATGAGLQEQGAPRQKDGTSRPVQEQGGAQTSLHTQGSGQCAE
Description: interaction with endogenous RANK in RAW cells (data not shown).

B1: RAIN mutant K90/91A (from pCMV3×FLAG-hRAIN, stably expressed in RAW cells) (other, human, UniProt Q96GX9 1-242, looked up)
chain: MSGCDAREGDCCSRRCGAQDKEHPRYLIPELCKQFYHLGWVTGTGGGISLKHGDEIYIAPSGVQKERIQPEDMFVCDINEKDISGPSPSAALKKSQCTPLFMNAYTMRGAGAVIHTHSKAAVMATLLFPGREFKITHQEMIKGIKKCTSGGYYRYDDMLVVPIIENTPEEKDLKDRMAHAMNEYPDSCAVLVRRHGVYVWGETWEKAKTMCECYDYLFDIAVSMKKVGLDPSQLPVGENGIV
notes: range 1-242; not shown: 3×FLAG tag of pCMV3×FLAG-14 at the C-terminus
As for B1, the binding result in series [1] and in series [2] was “binds” in each case.

B2: RAIN mutant R194A (from pCMV3×FLAG-hRAIN, stably expressed in RAW cells) (other, human, UniProt Q96GX9 1-242, looked up)
chain: MSGCDAREGDCCSRRCGAQDKEHPRYLIPELCKQFYHLGWVTGTGGGISLKHGDEIYIAPSGVQKERIQPEDMFVCDINEKDISGPSPSKKLKKSQCTPLFMNAYTMRGAGAVIHTHSKAAVMATLLFPGREFKITHQEMIKGIKKCTSGGYYRYDDMLVVPIIENTPEEKDLKDRMAHAMNEYPDSCAVLVRAHGVYVWGETWEKAKTMCECYDYLFDIAVSMKKVGLDPSQLPVGENGIV
notes: as for B1
B2: the binding result in series [1] and in series [2] was “binds” in each case.
